Reference: patent publication US20210130436A1 (published 2021)
Changes are numbered by the printed parent chain. In names and notes the source's numbering stands.

T1: CD96 (UniProt P40200 22-585, limits assumed)
T1 construct: whole, on cells
T1 sequence (looked up): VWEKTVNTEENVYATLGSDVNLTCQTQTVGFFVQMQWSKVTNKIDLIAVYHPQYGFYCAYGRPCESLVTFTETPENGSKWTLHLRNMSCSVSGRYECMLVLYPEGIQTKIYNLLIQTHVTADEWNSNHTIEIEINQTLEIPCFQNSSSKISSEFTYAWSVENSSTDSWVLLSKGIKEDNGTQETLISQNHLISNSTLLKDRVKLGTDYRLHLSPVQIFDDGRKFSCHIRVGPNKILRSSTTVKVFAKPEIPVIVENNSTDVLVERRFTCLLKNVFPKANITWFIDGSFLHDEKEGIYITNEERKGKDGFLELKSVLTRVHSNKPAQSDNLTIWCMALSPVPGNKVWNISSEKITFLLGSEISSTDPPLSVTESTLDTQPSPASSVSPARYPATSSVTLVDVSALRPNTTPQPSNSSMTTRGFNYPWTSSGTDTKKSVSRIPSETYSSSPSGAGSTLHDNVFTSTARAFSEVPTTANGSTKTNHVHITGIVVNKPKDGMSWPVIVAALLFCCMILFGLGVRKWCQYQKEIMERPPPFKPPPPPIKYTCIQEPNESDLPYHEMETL

T2: CD226 (Homo sapiens (Human), UniProt Q15762 19-336)
T2 sequence: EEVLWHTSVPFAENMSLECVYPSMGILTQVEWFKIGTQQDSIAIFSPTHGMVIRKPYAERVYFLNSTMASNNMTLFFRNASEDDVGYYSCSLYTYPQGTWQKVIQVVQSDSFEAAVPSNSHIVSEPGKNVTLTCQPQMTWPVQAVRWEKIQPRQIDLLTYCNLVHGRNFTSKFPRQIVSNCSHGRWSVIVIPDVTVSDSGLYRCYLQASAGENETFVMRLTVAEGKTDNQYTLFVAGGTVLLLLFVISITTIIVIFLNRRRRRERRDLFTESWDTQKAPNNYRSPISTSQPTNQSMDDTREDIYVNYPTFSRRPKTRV

T3: TIGIT (Homo sapiens (Human), UniProt Q495A1 22-244)
T3 sequence: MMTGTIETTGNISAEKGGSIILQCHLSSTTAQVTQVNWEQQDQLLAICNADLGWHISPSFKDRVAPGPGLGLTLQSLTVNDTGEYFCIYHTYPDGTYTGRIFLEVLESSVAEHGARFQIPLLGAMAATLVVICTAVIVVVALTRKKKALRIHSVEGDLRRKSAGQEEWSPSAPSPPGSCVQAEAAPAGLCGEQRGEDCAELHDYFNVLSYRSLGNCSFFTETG

B1: variant CD80 IgV-Fc E35D/L97R (Fc fusion, not shown: a dimerising Fc or GST)
chain: VIHVTKEVKEVATLSCGHNVSVEELAQTRIYWQKDKKMVLTMMSGDMNIWPEYKNRTIFDITNNLSIVILALRPSDEGTYECVVLKYEKDAFKREHRAEVTLSVKAD
B2: variant CD80 IgV-Fc H18Y/E35D/M47V/N48K (Fc fusion, not shown: a dimerising Fc or GST)
chain: B1 chain with H18Y, M47V, N48K, R97L
B3: variant CD80 IgV-Fc E35D/N48K/L72V (Fc fusion, not shown: a dimerising Fc or GST)
chain: B1 chain with N48K, L72V, R97L
B4: variant CD80 IgV-Fc E35D/M47V/N48K/L85M (Fc fusion, not shown: a dimerising Fc or GST)
chain: B1 chain with M47V, N48K, L85M, R97L
B5: WT CD80 ECD-Fc (Fc fusion, not shown: a dimerising Fc or GST)
chain: VIHVTKEVKEVATLSCGHNVSVEELAQTRIYWQKEKKMVLTMMSGDMNIWPEYKNRTIFDITNNLSIVILALRPSDEGTYECVVLKYEKDAFKREHLAEVTLSVKADFPTPSISDFEIPTSNIRRIICSTSGGFPEPHLSWLENGEELNAINTTVSQDPETELYAVSSKLDFNMTTNHSFMCLIKYGHLRVNQTFNWNTTKQEHFPDN
notes: Wild-type control
B6: variant CD155 IgV-Fc S52Q (Fc fusion, not shown: a dimerising Fc or GST)
chain: WPPPGTGDVVVQAPTQVPGFLGDSVTLPCYLQVPNMEVTHVSQLTWARHGEQGSMAVFHQTQGPSYSESKRLEFVAARLGAELRNASLRMFGLRVEDEGNYTCLFVTFPQGSRSVDIWLRVL
B7: variant CD155 IgV-Fc S52W (Fc fusion, not shown: a dimerising Fc or GST)
chain: B6 chain with Q52W
B8: variant CD155 IgV-Fc S52R/Q62F/L104Q/G111R (Fc fusion, not shown: a dimerising Fc or GST)
chain: B6 chain with Q52R, Q62F, L104Q, G111R
B9: variant CD155 IgV-Fc T45Q/S52L/V57L/L104E (Fc fusion, not shown: a dimerising Fc or GST)
chain: B6 chain with T45Q, Q52L, V57L, L104E
B10: variant CD155 IgV-Fc T45Q/S52L/L104E/G111R (Fc fusion, not shown: a dimerising Fc or GST)
chain: B6 chain with T45Q, Q52L, L104E, G111R
B11: variant CD155 IgV-Fc S52W/L104E (Fc fusion, not shown: a dimerising Fc or GST)
chain: B6 chain with Q52W, L104E
B12: variant CD80 IgV-Fc Q33L/E35D/M47V (Fc fusion, not shown: a dimerising Fc or GST)
chain: B1 chain with Q33L, M47V, R97L
B13: variant CD80 IgV-Fc Q33L/E35D/M47V/T79A (Fc fusion, not shown: a dimerising Fc or GST)
chain: B1 chain with Q33L, M47V, T79A, R97L
B14: variant CD80 IgV-Fc E24D/Q33L/E35D/M47V/K54R/L85Q (Fc fusion, not shown: a dimerising Fc or GST)
chain: B1 chain with E24D, Q33L, M47V, K54R, L85Q, R97L

Target: T4, CD28 on Jurkat/IL2 reporter cells (human, UniProt P10747 19-220)
T4 construct: whole, on cells; Endogenous CD28 of Jurkat cells; also called Jurkats (CD28)
Test: flow cytometry, Jurkat cells (CD28)

Binder	MFI at 33.3 nM [MFI]
B1	44.6
B2	841
B3	582
B4	413

Target: human CD28 (human, UniProt P10747 19-220)
Test: flow cytometry, Jurkat cells (CD28)

Binder	MFI at 33.3 nM [MFI]
B5	31

Target: T5, human PD-L1 on CHO cells (human, UniProt Q9NZQ7 19-290)
T5 construct: whole, on cells; CHO cells stably expressing PD-L1; also called huPD-L1
Test: flow cytometry, CHO cells stably expressing PD-L1

T5 sequence (Q9NZQ7 19-290): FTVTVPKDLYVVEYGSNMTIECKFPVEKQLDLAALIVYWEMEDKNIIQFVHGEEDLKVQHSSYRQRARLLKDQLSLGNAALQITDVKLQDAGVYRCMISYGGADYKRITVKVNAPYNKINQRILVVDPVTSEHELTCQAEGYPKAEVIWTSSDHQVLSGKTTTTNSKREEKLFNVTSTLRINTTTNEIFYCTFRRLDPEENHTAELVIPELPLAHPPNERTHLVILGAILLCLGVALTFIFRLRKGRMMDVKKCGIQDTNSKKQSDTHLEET

Binder	MFI at 33.3 nM [MFI]
B1	2610
B2	6460
B3	3030
B4	5660

Target: T1, CD96
Test: flow cytometry, Fc fusion at 100 nM, CD96-transfected cells

Binder	MFI at 100 nM [MFI]
B6	1820
B7	1710
B8	2360
B9	1530
B10	1580
B11	1630

Target: T2, CD226
Test: flow cytometry, Fc fusion at 100 nM, CD226-transfected cells

Binder	MFI at 100 nM [MFI]
B6	2020
B7	2040
B8	3170
B9	5940
B10	2390
B11	1910

Target: T3, TIGIT
Test: flow cytometry, Fc fusion at 100 nM, TIGIT-transfected cells

Binder	MFI at 100 nM [MFI]
B6	2290
B7	1990
B8	2970
B9	2860
B10	2290
B11	1940

Target: T6, human CTLA4 (full-length, expressed on CHO cells) (human, UniProt P16410 36-223)
T6 construct: also called huCTLA4
Test: flow cytometry, CHO cells expressing huCTLA4, PE anti-human Fc

T6 sequence (P16410 36-223): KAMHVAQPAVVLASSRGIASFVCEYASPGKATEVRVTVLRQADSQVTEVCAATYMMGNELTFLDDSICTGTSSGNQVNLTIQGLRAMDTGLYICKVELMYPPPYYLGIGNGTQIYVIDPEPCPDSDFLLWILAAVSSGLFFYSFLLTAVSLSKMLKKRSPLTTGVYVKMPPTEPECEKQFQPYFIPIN

Binder	MFI at 33.3 nM [MFI]
B12	47600
B13	28900
B14	311000

Target: T7, human PD-L1 (full-length, expressed on CHO cells) (human, UniProt Q9NZQ7 19-290)
T7 construct: also called huPD-L1; CD274
Test: flow cytometry, CHO cells expressing huPD-L1, PE anti-human Fc

T7 sequence (Q9NZQ7 19-290): as the sequence (Q9NZQ7 19-290) above

Binder	MFI at 33.3 nM [MFI]
B12	47900
B13	62100
B14	67100
